Experimental data taken from the supplement of paper PMC9732359.
± gives the uncertainty stated by the source.

Assay: protein stability index of a GFP-peptide fusion (yeast GPS) (PSI 1-4); higher = more stable; sorted into four equal gates, so the index is relative within each strain
In short: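 Plasmids in a pooled yeast library fused tiled 17-residue yeast protein peptides downstream of GFP and also expressed Cherry. Mid-log cultures grown without leucine were sorted into four equal gates by GFP/Cherry fluorescence ratio. Each gate's plasmids were PCR-amplified and Illumina-sequenced, and reads were matched to strains by barcodes. The protein stability index is derived by multiplying each gate's read frequency by its gate number and summing the results.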

| Sequence | protein stability index (doa10∆) | protein stability index (pdr5∆) | protein stability index (san1∆) | protein stability index (ubr1∆) |
| --- | --- | --- | --- | --- |
| KYPLGHFVRDLGTIESA [DIS3] | 2.56 ± 0.097 | 2.43 ± 0.1 | 2.85 ± 0.15 | 2.58 ± 0.19 |
| SSEIKIYYNELQNKPDA [SIR4] | 2.91 ± 0.23 | 3.3 ± 0.14 | 2.46 ± 0.29 | 3.23 ± 0.087 |
| WPIVNSKVYFNNQSKEK [RPN12] | 2.87 ± 0.15 | 2.78 ± 0.15 | 2.67 ± 0.21 | 3.03 ± 0.13 |
| RKILNFKKDLVIVLSNI [SWI1] | 2.52 ± 0.1 | 2.25 ± 0.07 | 2.11 ± 0.14 | 2.71 ± 0.087 |
| DSESESGDKEATAPLIQ [RPN8] | 3.44 ± 0.19 | 3.44 ± 0.12 | 3.28 ± 0.093 | 3.49 ± 0.28 |
| KGTNGKKALKVRTSATF [RPL25] | 3.15 ± 0.13 | 3.03 ± 0.12 | 3.06 ± 0.13 | 3.3 ± 0.068 |
| LEHPYGKEVEVLMETKN [SNU114] | 2.26 ± 0.083 | 2.98 ± 0.068 | 2 ± 0.1 | 2.21 ± 0.057 |
| DIEDALVLNKSSIDRGF [RET1] | 2.37 ± 0.095 | 2.83 ± 0.14 | 2.24 ± 0.19 | 2.97 ± 0.22 |
| VDKGAIMKNKDFILSLL [YJL039C/NUP192] | 2 ± 0.17 | 1.81 ± 0.096 | 1.95 ± 0.11 | 1.96 ± 0.069 |
| GRGLWNPSYPGMMSTTG [YJL039C/NUP192] | 2.99 ± 0.092 | 3.12 ± 0.053 | 3.14 ± 0.074 | 3.1 ± 0.097 |
| HEDEKLIPTIFRYITTW [PRP8] | 2.6 ± 0.06 | 2.25 ± 0.048 | 1.9 ± 0.051 | 2.23 ± 0.033 |
| FAADGDALVKRFKNSVK [PRE7] | 2.64 ± 0.28 | – | – | – |
| EIFKKGYIKNNKKIYQW [POP6] | 3.46 ± 0.24 | – | – | – |
| ERSAGNIVQVFKKAAPS [RPB2] | 2.6 ± 0.12 | 2.53 ± 0.14 | 2.52 ± 0.11 | 2.91 ± 0.27 |
| LIGAATKFKGGKRQLMK [SEC65] | 1.64 ± 0.1 | 2.03 ± 0.084 | 2.14 ± 0.11 | 1.93 ± 0.14 |
| LFVGTDRQLHEISTSKK [RPN14] | 2.91 ± 0.07 | 2.91 ± 0.076 | 2.9 ± 0.092 | 2.7 ± 0.092 |
| AELLVLKILKQVMEEKL [PUP2] | 2.73 ± 0.16 | 2.75 ± 0.087 | 2.69 ± 0.24 | 2.56 ± 0.24 |
| RSPLVTPMDESSYDLLF [SRP72] | 2.71 ± 0.13 | 3.06 ± 0.1 | 3.29 ± 0.12 | 3.2 ± 0.08 |
| STSIQYHGISKNDNIKK [POP6] | 2.79 ± 0.068 | 2.9 ± 0.055 | 2.89 ± 0.043 | 2.92 ± 0.05 |
| AQADKQDISSSTRVEFE [FAS2] | 3.12 ± 0.081 | 3.17 ± 0.068 | 3.08 ± 0.06 | 3.33 ± 0.055 |
| KSLEEQEYAIEMKIGSI [SMC1] | 2.71 ± 0.11 | 3.23 ± 0.18 | 2.67 ± 0.11 | 2.66 ± 0.2 |
| SGLMVILYTSKIVFILD [RRI2] | 1.76 ± 0.09 | 1.81 ± 0.049 | 1.44 ± 0.094 | 1.69 ± 0.037 |
| KLIPKLYRYRFDPFQAV [ECM29] | 2.86 ± 0.14 | 2.77 ± 0.14 | 2.71 ± 0.11 | 2.8 ± 0.063 |
| LMASVILDSLPSVIHSS [YDL116W/NUP84] | 1.76 ± 0.042 | 1.38 ± 0.039 | 1.34 ± 0.067 | 1.48 ± 0.034 |
| KGTVFQFEIPISDDDDS [POP4] | 3.3 ± 0.17 | 2.47 ± 0.15 | 2.29 ± 0.15 | 3.13 ± 0.042 |
| LRGCKFLQSVDITGIRD [GRR1] | 1.72 ± 0.034 | 2.03 ± 0.046 | 1.89 ± 0.053 | 1.83 ± 0.04 |
| APIADDNHSGDATANAT [DSN1] | 3.15 ± 0.1 | 3.08 ± 0.071 | 3.27 ± 0.083 | 3.38 ± 0.076 |
